The assay has as its target T1, FLAG-2xStrep-PNO1 (UniProt Q9NRX1 1-252).
T1 construct: also called PNO1 bait protein
The experiment in a line: pull-down. As to conditions: partners not purified.

T1 sequence (Q9NRX1 whole entry): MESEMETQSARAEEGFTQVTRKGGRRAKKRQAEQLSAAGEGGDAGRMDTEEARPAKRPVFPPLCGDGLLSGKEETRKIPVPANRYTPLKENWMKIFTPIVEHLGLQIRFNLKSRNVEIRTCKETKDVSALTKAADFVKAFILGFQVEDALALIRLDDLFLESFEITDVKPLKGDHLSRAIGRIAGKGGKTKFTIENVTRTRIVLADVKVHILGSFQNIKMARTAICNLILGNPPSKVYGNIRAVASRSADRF

B1: BUD23 (natural protein, human (endogenous in TREx BCBL1-Rta), UniProt O43709 1-281, looked up)
chain: MASRGRRPEHGGPPELFYDETEARKYVRNSRMIDIQTRMAGRALELLYLPENKPCYLLDIGCGTGLSGSYLSDEGHYWVGLDISPAMLDEAVDREIEGDLLLGDMGQGIPFKPGTFDGCISISAVQWLCNANKKSENPAKRLYCFFASLFSVLVRGSRAVLQLYPENSEQLELITTQATKAGFSGGMVVDYPNSAKAKKFYLCLFSGPSTFIPEGLSENQDEVEPRESVFTNERFPLRMSRRGMVRKSRAWVLEKKERHRRQGREVRPDTQYTGRKRKPRF
With B1, the “fold increase of association during lytic replication over latency (densitometry of pulldown blots, normalised to PNO1)” value amounted to 4.3 fold.

B2: NOC4L (natural protein, human (endogenous in TREx BCBL1-Rta), UniProt Q9BVI4 1-516, looked up)
chain: MEREPGAAGVRRALGRRLEAVLASRSEANAVFDILAVLQSEDQEEIQEAVRTCSRLFGALLERGELFVGQLPSEEMVMTGSQGATRKYKVWMRHRYHSCCNRLGELLGHPSFQVKELALSALLKFVQLEGAHPLEKSKWEGNYLFPRELFKLVVGGLLSPEEDQSLLLSQFREYLDYDDTRYHTMQAAVDAVARVTGQHPEVPPAFWNNAFTLLSAVSLPRREPTVSSFYVKRAELWDTWKVAHLKEHRRVFQAMWLSFLKHKLPLSLYKKVLLIVHDAILPQLAQPTLMIDFLTRACDLGGALSLLALNGLFILIHKHNLEYPDFYRKLYGLLDPSVFHVKYRARFFHLADLFLSSSHLPAYLVAAFAKRLARLALTAPPEALLMVLPFICNLLRRHPACRVLVHRPHGPELDADPYDPGEEDPAQSRALESSLWELQALQRHYHPEVSKAASVINQALSMPEVSIAPLLELTAYEIFERDLKKKGPEPVPLEFIPAQGLLGRPGELCAQHFTLS
B2: the “fold increase of association during lytic replication over latency (densitometry of pulldown blots, normalised to PNO1)” value was 3.1 fold.

The values above are taken from paper PMC9849454, “Kaposi’s sarcoma-associated herpesvirus induces specialised ribosomes to efficiently translate viral lytic mRNAs” (Nature Communications, 2023).
